# Assay: yeast display, Sf9 membrane polyspecificity reagent, FACS + sequencing; frameworks hold sequencing errors
# Method in brief: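 A nanobody's polyreactivity label depends on the gate it was sorted from. Yeast display cells were stained with 10% biotinylated, detergent-solubilized Sf9 membrane reagent for 1 hour at 4 °C, enriched on streptavidin microbeads and sorted by FACS. The low and high (top ~1%) gates were set on anti-HA fluorescence for expression and streptavidin fluorescence for reagent binding.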
row,Sequence,polyreactivity (PSR sort gate)
1,QVQLVDSGGGLVQAGGSLRLSSAASGITFQRYAMGWYRQAPGKERELVAGINGRGGSTYYADSVKGRFTISRDNAKNTVYLQMNSLKPEDTAVYYCNAVYAGRYFGFDYWGQGTQVTVSS,high polyreactivity
2,QVQLVDSGGGLVQAGGSLRLTCAASGSTYYRNAMGWYRQAPGKETEFVAAISFRGGGTYADSVKGRFTISRDNAKNTVYLQMNSLKPDDTAVYYCDSDHLSYRRRYEYWGQGTKVTVSS,low polyreactivity
3,QVQLVDSGGGLVQAGGSLRVSCAASGIIFYYNAMGWYRQAPGKEREFVASISSRGGSTYYADSVKGRFTISRDNSKNTVYLQMNSLKPEDTAVYYCAAAFDWRRQRYNYWGQGTQVTVTS,high polyreactivity
4,QVQLVDSGGGLVQAGGSLSLSCAASGSTFGYYSMGWYRESPGKERELVAAITWSGDSTYADSVKGRFTISRDNAKNTVYLQMNSLKPEDTAVYYCARRGFLGHWPRPSYDYWGQGTQVTVSS,low polyreactivity
5,QVQLVDSGGGLVQAGVSLRISCAASGIIIRYYGMGWYRQAPGKERELVARIRWTGGSTYYADSVKGRFTISRYNAKNTVYLQMNSLKQEETAVYYCAADIWQYSRIANSHPYDYWGQGTQVTVSS,low polyreactivity
6,QVQLVDSGGGLVQARGSLRLSCAASGYNFGNAMGWYRQPPGQEREFVAAISSSGSSTYYADSVKGRFTISRDNAKNTVYLQMNSLKPEDTAVYYCAKSRRSAAPKYDYWGQGTQVTVSS,high polyreactivity
7,QVQLVDSGGGLVQEGGSLRLSCAASGLTFYSNAMGWYRQARGKERELVARISTGGSTYADSVKGRFTISRDNAKNTVYLQMNSLKPEVTAVYYCAAEYNLRTYWGDYWGQGTQVTVSS,low polyreactivity
8,QVQLVDSGGGLVQEVGSLRLSCAASGSTFPFNAMGWYRQAPGKERELVATISGRGGSTYYADSVKGRFTISRDNAKNTVYLQMNSLKPEDTAVYYCAAEIHDRFDSWGQGTQVTVSS,low polyreactivity
9,QVQLVDSGGRLVQAGGSLRLSCAASGRIFVNNAMRWYRQAPGKERELVAAITRGGSTYYADSVKGRFTLSRDNAKNTVYLQMNSLKPEDTAVYYCDSDYQRNDFRWYDYWGQGTHVTVSS,low polyreactivity
10,QVQLVDSGGRLVQAGGSLRLSSPASGLIISAYAMGWYRQAPGKEMEFVAAISRSGGITYYADSVKGRFTISRDNAKNTVYLQMNSLKPEDTAVYYCNARLYDPTLKFGYWGQGTQVTVSS,high polyreactivity
11,QVQLVDSGGVLVQAGGSLSLSCAASGITFPINAMGWYRQAPGKEREFVATISFSGASTYYADSVKGRFTISRDNAKNSVYLQMNSLKREDTAVYYCAARWKPPYWGRYYYWGQGTQVTVSS,high polyreactivity
12,QVQLVDSGRGLVQAGGSLRLSCAASGSIFYYNTMGWYRQAPVKERELVAAISSSDGSTYYADSVKGRFTISRDNAKNTVYLQMNSLKPEDTAVYYCNADLIYGEEYDYWGQGTQVTVSS,low polyreactivity
13,QVQLVDSVGGLVQAGGSLRLSCAASGFIFGRNSMGWYIQAPGKERELVAGISSRGGRTYYADSVKGRFTISRDNAKNTVYLQMNSLKPEDTAVYYCAAAGLTDYVRYDYWGQGTQVTVSS,high polyreactivity
14,QVQLVDSVGGLVQAGGSLRLSCAASGFTFGVNVMGWYRQEPGKEREFVAAITWSGDSTYYADSVKGRFTISRDNAKNTVYLQMNSLKPEDSAVYYCAADGNTWPADFLSYYFEFDEYWGQGTQVTVSS,low polyreactivity
15,QVQLVDSVGGLVQAGGSLRLSCAASGRIFRYYAMGWYRQAPRKERELVAAITWSGGSTYYADSVKGRFTISRDNAKNTVYLQMNSLKPEDTAVYYCNADSVYAGFDYWGQGTQVTVSS,low polyreactivity
16,QVQLVDTGGGLVQAGGSLRLSCAASGSTFYFNAMGWYRLAPGKERELVAAISYSGGSTYYADSVKGRFTISRDNAKNTVYFQMNSLKPEDTAVYYCNARGLKSYYPGYWFRGDDWGQGTQVTVSS,high polyreactivity
17,QVQLVEAGAGLVQAGGSLRLSCAASGGIFGQYTRGWSRHAPGKERELVAGISTSGGSTYYADSVKGRFTISRDYAKNTVYLQMNSLKPGDTAVYYCAAGSYRKRVTNYSYRTPYGYWGHGTQVTVSS,high polyreactivity
18,QVQLVEAGGGFVQAGGSLRLSCAASGFTFDYYAMGSYRQAHGKERELVAAITLNGGSTYYADSVKGRFTISRDNAKNTVYLQMNSLKPEDPAVYYCAADGSGYYDWYYYWGHGTQVTVSS,low polyreactivity
19,QVQLVEAGGGLVQAGGSLRLSCAASGFIFYGYMGWYIQAHGKERELVAAISYTGGSTYYADSVKGRFTISRDNAKNTVYLQMISLKPEDTAVYYCARDWRTKWFGYWGQGTQVTVSS,low polyreactivity
20,QVQLVEAGGGLVQAGGSLRLSCAASGIIFGFYAMGWYRQAPGKERELVAAITNDGGNTNYADSVKGRFTISRDNAKNTVYLQMNSLKPEDTAVYYCNADRTQDRTPYTYATFDYWGQGTQVTVSS,low polyreactivity

row,Sequence,polyreactivity (PSR sort gate)
1,QVQLVEAGGGLVQAGGSLRLSCAASGPIFPLYAKGWYRQAPGKERELVAAISSGGTTYYADSVKGRFTISRDNAKNTVYLQMNSLKQEDTAVYYCARRPAQRLGRFDYWGQGTQVTVSS,low polyreactivity
2,QVQLVEAGGGLVQAGGSLRLSCAASGRTFSFNAMGCYRQAPGKERELVAAISRRGTSTYYADSVKGRFTISRDNAKNSVYLQMNSLKPEYTAVYYCAARSTYTRREYDYWGQGTQVTVSS,high polyreactivity
3,QVQLVEAGGGLVQAGGSLRLSCAASGSTFKRYAMGWYRQAPGKERELVASISSGGSTNYADSVKGRFTISRDNAKNTVYLQMNSLKPEDTAVDYCAVSYRSFRYYWERYYSWGQGTQVTVSS,high polyreactivity
4,QVQLVEAGGGLVQAGGSLRLSCAASGSTLVYNDMGWYRQAPGKEREFVAAIRSNDGSTYYADSVKGRFTISRDNAKNTVYLQMNSLKPEDTAVYFCNKDVWDGYDWPEFDYWGQGTQVTVSS,low polyreactivity
5,QVQLVEAGGGLVQAGGSLRLSCASSGSIITVYDMGWYRQPPGKERELVATITGSDGRTDYADSVKGRFTISRDNAKNTVYLQMNSLKPEDTAVYYCAAHVFQWKNRQSLLFDQGYYWGQGTQVTVSS,low polyreactivity
6,QVQLVEAGGGLVQAGGSLRLSGAASGRTFSLYAMGWYRQAPGKERELVAAITVSGGSTYYADSVKGRFTISRDNAKNTVYLQMNSLKPEDTAVYYCAAEGQPFRYYLLDYWGQGTQVTVSS,low polyreactivity
7,QVQLVEAGGGLVQAGGSLRLTCAASGSIISRYAMGWYRQAPGKEREFVAAISSSGGSTYYADSVKGRFTISRDNAKNTVDVQMNSLKPEDTAVYYCARYAYKVPIMGYWGQGTQVTVSS,high polyreactivity
8,QVQLVELGGGLVQAGGSLRLSCAASGRIFTHNAMGWYRQAPGKDRELVAAISYSGVSTYYADSVKGRFTISRDNAKNTVYLQMNSLKPEDTAVYYCARRYWYPDAFYRYDYWGQGTQVTVSS,low polyreactivity
9,QVQLVEPGGGLVQAGGSLRLSCAASGRTFYRYAMGWYRQAPGKERELVAAITWSGGRTYYADSVKGRFTMSRDYAKNTVYLQMNSLKPEDTAVYYCAADNSYRGYHSPYDYWGQGTQVTVSS,low polyreactivity
10,QVQLVERGGGLVQAGGSHRLSCAASGRIFPGYAKGWYRQAPGKELELVAAISRIGGDTYYADSVKGRFTISRDNAKNTVYLQMNSLKPEDTPVYYCAARYGRHRVSWYATWRYGYWGQGTQVTVSS,low polyreactivity
11,QVQLVESAAGLVLAGGSLRLSCAASGSIFRFYAMGWSRQAPGQERELVAGITLSGASTYYADSVKGRFTISRDNAKNTVYLQMNSLKPEDTAVYYCAKRYRLDGFYYWGQGTQVTVSS,high polyreactivity
12,QVQLVESAAGLVQAGGSLRLSCAASGGIFWVYAMGWYRQAPGKERELVAAISNSDTSTSDADSVKGRFTISRDTAKNTVYLQMYSLKPEDTAVYNCNGDSPSLSGDIWGQGTQVTVTS,low polyreactivity
13,QVQLVESAAGLVQAGGSLRLSCAASGIIFSKYAMGWYRQAPGKERELVAASSSSGGSTYYADSVKGRFTISRDNAKNTVYLQMNSLKPEDTAVYYCAKGGGPNSRGYWGQGTQVTVSS,high polyreactivity
14,QVQLVESAAGLVQAGGSLRLSCAASGLILDEYAMGWYRQAPGKEMELVAAISWSGGSTYYADSVKGRFTISRDNAKNTVYLQMNSLKPEDTAVYYCAADRVWFSDNSYYYWGQGTQVTVSS,high polyreactivity
15,QVQLVESAAGLVQAGGSLRLSCAASGRIFGYYTMGWYRQAPGKERELVAAINGRGTSTYYADSVKGRFTISRDNAKYTVYLQMNSLKPEDTAVYYCAAQLYYYGQYKHFDYWGQGTQVTVSS,high polyreactivity
16,QVQLVESAAGLVQAGVSLRLSCAASGFTLFYYAMGWYRQEPGKERELVAGISRRGGSTYYADSVKGRFTISRDNEKNTVYLQMNSLKPEDTAVYYCAAGLCGYKSDTRGDYWGQGTQVTVSS,low polyreactivity
17,QVQLVESAGGIVQAGGSLRLSCAASGITFPGNAMGWYRPAPGKERELVAAIDCYGGSTYYADTVKGRFTISRDNAKNTVYLQLNSLKPEDTAVYYCATDEYFSYYGYFLDAYWGQGTQVTLSS,low polyreactivity
18,QVQLVESAGGIVQEGGSLRLSCAASGGTFTNYALGWYRQAPGKERELVAAITDSGAHTYYADSVKGRFTISRDNAKNKVYLQMYCLKPEDTAVYYCNAELDLYTDFDYWGQVTQVTVSS,low polyreactivity
19,QVQLVESAGGLVKEGGSLRLSCAASGRTFGVNAMGRYRQAPGKERELVAAITWSGDSTYYADSVKGRFTISRDNAKNTVYLQMNSLKPEDTAVYYCAKKSSLFKHVVRYAYWGQGNQVTVSS,low polyreactivity
20,QVQLVESAGGLVQAGASLRLSCAPSGSIFRINAMGWYRQAPGKERELVAAISTRSGRTYYADSVKGRFTISRDNAKNTVYLQMYSLNPEDTAVYYCARYRTQASGYGGYDYWGQGTQATVSS,high polyreactivity

# From the nanobody polyreactivity screen of Harvey et al. (2022)
